Positions count from the first letter of the chain named. In names and notes the source's numbering stands. Like-named read-outs stand apart in the source and are kept apart here.
How the values were obtained:
[1] = cited from earlier work
[2] = Time course of Rebaudioside A utilization and RebAG1 formation (NP-HPLC); type: biochemical; conditions: 1000 mM sucrose, 10 U/mL enzyme
Experimental: (§1) Incubation reactions were performed in 25 mM sodium acetate (pH 4.7), 1 mM CaCl2, 50 to 1,000 mM sucrose, 50-100 mM steviol glycoside, and 2-30 U/mL purified GTF180-ΔN enzyme or GTF180-ΔN mutant enzyme at 37° C. for 15 min to 24 hours. Reactions were stopped by heat inactivation (100° C. for 15 min). From the inactivated samples 250 uL was mixed with 1000 ul of 10 mM catechol (internal standard) and subsequently purified by solid phase extraction using Strata-X 33u Polymeric Reversed Phase columns (Phenomenex). For HPLC analysis 20 μL of the purified sample was injected on a Luna 10 μm NH2 chromatography column (250 mm×4.6 mm; Phenomenex). Reaction components were separated at a flow-rate of 1 mL/min under gradient elution conditions, starting with a 2 min isocratic step of 70% solvent A followed by a linear gradient from 70 to 55% solvent A over 9 min (solvent A=acetonitrile; solvent B=0.025% acetic acid). Rebaudioside A and the mono-α-glucosylated Rebaudioside A product concentrations were determined with NP-HPLC, using their corresponding calibration curves ranging from 1.56 to 50 mM. All data were normalized with catechol as internal standard. The standard deviation of the response was less than 5%. […]

[3] = Isolation and structural analysis (NMR, methylation analysis) of α-glucosylated Rebaudioside A products; type: biochemical; conditions: 10 U/mL enzyme, 50 mM Rebaudioside A, 2 x 1000 mM sucrose, 24 hours
Experimental: For quantitative synthesis of α-glucosylated Rebaudioside A products using GTF180-ΔN and its derived mutants, incubations were performed in 5 mL 25 mM sodium acetate (pH 4.7), 1 mM CaCl2, 50 mM steviol glycoside with two batches of 1,000 mM equivalent of sucrose donor (t=0 and 3 h) to a total of 2,000 mM sucrose, using 10 U/mL enzyme at 37° C. for 24 hours. Products were purified from the incubation mixture by solid phase extraction using Strata-X 33u Polymeric Reversed Phase columns (Phenomenex). Products were separated on a Luna 10 μm NH2 semi-preparative chromatography column (250 mm×10 mm, Phenomenex) and were manually collected at a flow-rate of 4.6 mL/min, starting with a 2 min isocratic step of 80% solvent A followed by a linear gradient of 80 to 50% solvent A over 38 min (solvent A=acetonitrile; solvent B=0.025% acetic acid). The solvent of the collected fractions was evaporated under a stream of nitrogen gas and the dried materials were dissolved in deionized water.
Resolution-enhanced 1D/2D 500-MHz ^1H NMR spectra were recorded in D2O on a Bruker DRX-500 spectrometer (Bijvoet Center, Department of NMR Spectroscopy, Utrecht University) at a probe temperature of 334K. Data acquisition and processing were done with Bruker Topspin 2.1. Prior to analysis, samples were exchanged twice in D2O (99.9 atom % D, Cambridge Isotope Laboratories, Inc., Andover, Mass.) with intermediate lyophilization, and then dissolved in 0.6 mL D2O. […] The 2D TOCSY spectra were recorded using an MLEV-17 (composite pulse devised by Levitt et al (1982)) mixing sequence with spin-lock times of 40-200 ms. The 2D ROESY spectra were recorded using standard Bruker XWINNMR software with mixing time of 200 ms. […] Natural abundance 2D ^13C-^1H HSQC experiments (^1H frequency 500.0821 MHz, ^13C frequency 125.7552 MHz) were recorded without decoupling during acquisition of the ^1H FID. […]

[4] = Screening glucan and fructansucrase enzymes for α-glucosylation of Rebaudioside A; type: biochemical; conditions: compared to GTF180-ΔN where comparative
Experimental: as §1

[5] = Polymerization (oligosaccharide and glucan formation from sucrose) activity; type: biochemical; conditions: data not shown
Experimental: Over a hundred glucan and fructansucrase wild type and mutant enzymes, mostly from Lactobacillus reuteri, were screened for Rebaudioside A α-glucosylation. For this, enzymes were incubated in 50 mM Rebaudioside A (FIG. 1) and 1000 mM sucrose for 3 hours. […] This is a clear advantage during downstream processing, the purification of the α-glucosylated Rebaudioside A products from mono- and disaccharides, oligosaccharides and glucans. By eliminating α-glucan synthesis, the most important side reaction, higher glycosylation yields were obtained for Rebaudioside A. At lower sucrose concentration (200 mM), these mutants had similar or even higher transglucosylating activity with Rebaudioside A than GTF180-ΔN and mutants S1137Y and Q1140E (data not shown).

[6] = in water and in carbonated beverage base

In the case of `C=C1C[C@@]23CC[C@H]4[C@@](C)(CCC[C@@]4(C)C(=O)O[C@@H]4O[C@H](CO)[C@@H](O)[C@H](O)[C@H]4O[C@@H]4O[C@H](CO)[C@@H](O)[C@H](O)[C@H]4O)[C@@H]2CC[C@]1(O[C@@H]1O[C@H](CO)[C@@H](O)[C@H](O[C@@H]2O[C@H](CO)[C@@H](O)[C@H](O)[C@H]2O)[C@H]1O[C@@H]1O[C@H](CO)[C@@H](O)[C@H](O)[C@H]1O)C3` [Rebaudioside D], the “bitterness compared to Rebaudioside A” value [1, 6] is given as “decreased bitterness” and the “sweetness compared to Rebaudioside A” value [1, 6] is given as “increased sweetness”.

For `C=C1C[C@@]23CC[C@H]4[C@@](C)(CCC[C@@]4(C)C(=O)O[C@@H]4O[C@H](CO)[C@@H](O)[C@H](O[C@@H]5O[C@H](CO)[C@@H](O)[C@H](O)[C@H]5O)[C@H]4O[C@@H]4O[C@H](CO)[C@@H](O)[C@H](O)[C@H]4O)[C@@H]2CC[C@]1(O[C@@H]1O[C@H](CO)[C@@H](O)[C@H](O[C@@H]2O[C@H](CO)[C@@H](O)[C@H](O)[C@H]2O)[C@H]1O[C@@H]1O[C@H](CO)[C@@H](O)[C@H](O)[C@H]1O)C3` [Rebaudioside M], the “bitterness compared to Rebaudioside A” value ([1]; in acidified water) is given as “reduced bitterness”, the “sweetness compared to Rebaudioside A” value ([1]; in acidified water) is given as “higher sweetness” and the “bitterness compared to Rebaudioside A” value ([1]; in water solution) is given as “reduced bitterness”.

B1: GTF180-ΔN: N-terminal truncated GTF180 (AY697430) of Lactobacillus reuteri 180; Met-Gly-742-1772-His6 (protein, listed as Lactobacillus reuteri)
chain: MGINGQQYYIDPTTGQPRKNFLLQNGNDWIYFDKDTGAGTNALKLQFDKGTISADEQYRRGNEAYSYDDKSIENVNGYLTADTWYRPKQILKDGTTWTDSKETDMRPILMVWWPNTVTQAYYLNYMKQYGNLLPASLPSFSTDADSAELNHYSELVQQNIEKRISETGSTDWLRTLMHEFVTKNSMWNKDSENVDYGGLQLQGGFLKYVNSDLTKYANSDWRLMNRTATNIDGKNYGGAEFLLANDIDNSNPVVQAEELNWLYYLMNFGTITGNNPEANFDGIRVDAVDNVDVDLLSIARDYFNAAYNMEQSDASANKHINILEDWGWDDPAYVNKIGNPQLTMDDRLRNAIMDTLSGAPDKNQALNKLITQSLVNRANDNTENAVIPSYNFVRAHDSNAQDQIRQAIQAATGKPYGEFNLDDEKKGMEAYINDQNSTNKKWNLYNMPSAYTILLTNKDSVPRVYYGDLYQDGGQYMEHKTRYFDTITNLLKTRVKYVAGGQTMSVDKNGILTNVRFGKGAMNATDTGTDETRTEGIGVVISNNTNLKLNDGESVVLHMGAAHKNQKYRAVILTTEDGVKNYTNDTDAPVAYTDANGDLHFTNTNLDGQQYTAVRGYANPDVTGYLAVWVPAGAADDQDARTAPSDEAHTTKTAYRSNAALDSNVIYEGFSNFIYWPTTESERTNVRIAQNADLFKSWGITTFELAPQYNSSKDGTFLDSIIDNGYAFTDRYDLGMSTPNKYGSDEDLRNALQALHKAGLQAIADWVPDQIYNLPGKEAVTVTRSDDHGTTWEVSPIKNVVYITNTIGGGEYQKKYGGEFLDTLQKEYPQLFSQVYPVTQTTIDPSVKIKEWSAKYFNGTNILHRGAGYVLRSNDGKYYNLGTSTQQFLPSQLSVQDNEGYGFVKEGNNYHYYDENKQMVKDAFIQDSVGNWYYLDKNGNMVANQSPVEISSNGASGTYLFLNNGTSFRSGLVKTDAGTYYYDGDGRMVRNQTVSDGAMTYVLDENGKLVSESFDSSATEAHPLKPGDLNGQK
With B1 the “Rebaudioside A conversion” value ([2]; 50 mM Rebaudioside A) was 55%, the “RebAG1 formed from 50 mM Rebaudioside A” value [2] was about 13 mM and the “share of di-glucosylated Rebaudioside A product elongated with an (α1→3)-linked glucose” value [3] was about 75%. The “share of di-glucosylated Rebaudioside A product elongated with another (α1→6)-linked glucose” value [3] was about 25% and the “share of mono-α-glucosylated product with (α1→6)-linked glucose at the C-19 β-linked glucose” value [3] was 100%.

B2: GTF180-ΔN-XM2: single amino acid mutant (W1065L) of GTF180-ΔN (protein, listed as Lactobacillus reuteri)
chain: B1 chain with W326L
For B2, the “α-glucosylation / transglucosylating activity towards Rebaudioside A (in words)” value [4] was “able to α-glucosylate Rebaudioside A” and the “polymerization (oligosaccharide and glucan formation) activity” value [5] was “almost no polymerization”.

Source: patent US10731195B2, “Methods for the enzymatic modification of steviol glycosides, modified steviol glycosides obtainable thereby, and the use thereof as sweeteners” (Rijksuniversiteit Groningen, priority 2015, dated 2020)
